According to patent publication US20190153103A1 (AbbVie / Abbott, published 2019):
Numbering of substitutions follows the chain as printed.

T1: hBMPR1B-His (human BMPR1B extracellular domain, residues K14 to R126, with C-terminal 9x-Histidine tag) (human, UniProt O00238 14-126)
T1 construct: Residues K14-R126 are counted on the hBMPR1B ORF (NM_001203); The IgK signal peptide of the vector is left out; also called hBMPR1B-CHis; human BMPR1B-his
T1 sequence: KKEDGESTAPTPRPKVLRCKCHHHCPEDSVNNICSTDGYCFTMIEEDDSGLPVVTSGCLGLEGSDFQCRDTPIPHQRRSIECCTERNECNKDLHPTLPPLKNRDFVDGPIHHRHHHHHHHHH

T2: rat-his
T2 construct: soluble analyte of the Biacore runs; also called rSCRx91-his; rBMPR1B-CHis
T2 chain: T1 sequence with P12A, L51T, N102D, R113K

T3: human BMPR1B coated on MSD plates (construct not stated) (human, UniProt O00238 14-126, limits assumed)
T3 construct: also called BMPR1B receptor
T3 sequence: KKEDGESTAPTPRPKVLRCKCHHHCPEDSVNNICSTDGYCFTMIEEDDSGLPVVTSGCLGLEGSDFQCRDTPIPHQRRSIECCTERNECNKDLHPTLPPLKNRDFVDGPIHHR

T4: BMP4-his (human, UniProt P12644 293-408, limits assumed)
T4 construct: not shown: his tag
T4 sequence (looked up): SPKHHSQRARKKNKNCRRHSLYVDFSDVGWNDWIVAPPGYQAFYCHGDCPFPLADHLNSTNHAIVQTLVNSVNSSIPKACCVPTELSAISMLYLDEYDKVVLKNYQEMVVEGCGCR

B1: BMP2 fused to a human Fc fragment (Fc fusion, UniProt P12643 283-396, looked up)
chain: QAKHKQRKRLKSSCKRHPLYVDFSDVGWNDWIVAPPGYHAFYCHGECPFPLADHLNSTNHAIVQTLVNSVNSKIPKACCVPTELSAISMLYLDENEKVVLKNYQDMVVEGCGCR
notes: not shown: human Fc fragment
B2: SC91.11 (antibody, V domains shown)
VH: QVQLQQPGAELVKPGASVKLSCKASGYTFTTYWMHWVKQRPGRGLEWIGRIDPNSGGTKYNEKFKSKATLTVDKPSSTACMQLSSLTSEDSAVYYCASRRGDIDVWGTGTTVTVSS
VL: DIVMTQSQKFMSTSVGDRVSVTCKASQNVGTNVFWYQQKPGQSPKALIYAASYRYSGVPDRFTGSGSGTDFTLTISNVQSEDLADYFCQQYDSYPLTFGDGTKLELR
B3: SC91.19 (antibody, V domains shown)
VH: QIQLVQSGPELKKPGETVKISCKASGYTFTTYGMNWVKQAPGKGLKWMGWINTYSGVPSSANDFKGRFAFSLETSASTAYLQINNLKNEDTATYFCARSELRNWYFDVWGTGTTVTVSS
VL: SFVMTQTPKFLLVSAGDRVTITCKASQSVGNDVAWYQQKPGQSPKLLIYYASNRYTGVPDRFTGSGYGTDFTFTISTVQAEDLAVYFCQQDYSSPFTFGSGTKLEMK
B4: SC91.9 (murine anti-BMPR1B antibody) (antibody, V domains shown)
VH: QVQLQQPGAELVKPGASVKLSCKASGYTFISYWMHWVKQRPGQGLEWIGMIHPNSGSTNYNESFKSKATLTVDKSSSTAYMQLSSLTSEDSAVYYCARDLLIATVVVTPYFAYWGQGTILTVSS
VL: DIQMTQTTSSLSASLGDRVTISCRASQDISNFLNWYQQKPDGTIKFLIYYTSRLHSGVPSRFSGSGSGTDYSLTIRNLEQEDIATYFCQQGNTLPYTFGGGTKLEIK
notes: Murine hybridoma antibody
B5: SC91.1 (murine anti-BMPR1B antibody) (antibody, V domains shown)
VH: QVQLQQPGAELVKPGASVKLSCKASGYTFTSYWMQWVKQRPGQGLEWIGEIDPSDNYTLYNQKFKGKATLTVDTSSSTAYMQLSSLTSEDSAVYYCARFGYYVDYWGLGTTLTVSS
VL: DVVMTQTPLSLPVSLGDQASIFCRSSQSLVHSTGNTYLHWYLQKPGQSPKLLIYKVSNRFSGVPDRFSGSGSGTDFTLKISRVEAEDLGVYFCSQSTHVPFTFGSGTKLEIK
notes: Murine hybridoma antibody with a kappa light chain
B6: SC91.3 (murine anti-BMPR1B antibody) (antibody, V domains shown)
VH: B5 VH with N56S, Y95F, V103I, D104E, L108Q
VL: B5 VL with F22S
notes: Murine hybridoma antibody
B7: SC91.27 (murine anti-BMPR1B antibody) (antibody, V domains shown)
VH: B5 VH with L11V, S31N, N56R, L59M, T71I, Y95F, L108Q
VL: B5 VL with F22S, K50N
notes: Murine hybridoma antibody with the same VL as SC91.20
B8: SC91.20 (antibody, V domains shown)
VH: B5 VH with L11V, K13R, V18L, V37I, L59M, Y95F, Y101F, L108Q
VL: B5 VL with F22S, K50N
B9: SC91.15 (murine anti-BMPR1B antibody) (antibody, V domains shown)
VH: QVQLQQPGAELVMPGASVKLSCKASGYTLTNYWMHWVKQRPGQGLEWIGDIDPSDTYTNYNHKFKGKATLTVDKSSSTAYMQLSSLTSEDSAVYYCARSGWDYFDSWGQGTTLTVSS
VL: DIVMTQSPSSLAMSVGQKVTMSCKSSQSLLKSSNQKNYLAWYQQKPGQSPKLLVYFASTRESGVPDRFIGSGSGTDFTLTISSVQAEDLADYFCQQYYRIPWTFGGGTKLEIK
notes: Murine hybridoma antibody
B10: hBMPR1B-Fc (human BMPR1B extracellular domain, residues K14 to R126, fused to human IgG2 Fc) (Fc fusion)
chain: T3 sequence
notes: also called BMPR1B fused to human Fc fragment; not shown: human IgG2 Fc protein

target: T1, hBMPR1B-His (human BMPR1B extracellular …); experiment: SPR, Biacore T200: BMP2-Fc captured on anti-human capture chip, BMPR1B-his injected at 2.5-40 µM, 1:1 model

For B1, the Kd was 61000 nM.

target: T5, rat BMPR1B overexpressed on the surface of HEK293T cells (N-terminal Asp-Lys epitope tag, … (rat, UniProt A0A8I6A0G0 62-550)); experiment: flow cytometry
T5 construct: whole, on cells

Point of comparison: B3, “Flow cytometry MFI” value 470. Against it:
- B2 — higher, 4660
- B4 — higher, 5270
- B5 — higher, 5080
- B6 — higher, 5840
- B7 — higher, 5970
- B8 — higher, 5940
- B9 — higher, 4590

target: T6, human BMPR1B overexpressed on the surface of HEK293T cells (N-terminal Asp-Lys epitope tag, … (human, UniProt O00238 14-502)); experiment: flow cytometry
T6 construct: also called HEK293T cells overexpressing hBMPR1B; BMPR1B-expressing HEK293T cells

Point of comparison: B8, “Flow cytometry MFI” value 7480. Against it:
- B2 — lower, 7330
- B3 — lower, 7250
- B4 — lower, 5480
- B5 — lower, 5520
- B6 — lower, 6840
- B7 — lower, 6880
- B9 — lower, 5610

Target: T2, rat-his
Experiment: Biacore, 200 nM

B2: binds.
B3: binds.
B6: binds.

Target: T2, rat-his
Experiment: Biacore

Point of comparison: B7, Kd 2.14 nM. Against it:
- B4 — 12-fold lower, 0.181 nM
- B5 — 1.6-fold higher, 3.34 nM
- B8 — within 1.5-fold, 1.91 nM
- B9 — within 1.5-fold, 1.5 nM

target: T7, Cyno-his (cynomolgus); experiment: Biacore
T7 construct: extracellular domain; soluble analyte of the Biacore runs; also called cSCRx91-his; cBMPR1B-CHis

Point of comparison: B8, Kd 2.3 nM. Against it:
- B2 — 4.8-fold higher, 11.1 nM
- B4 — 15-fold lower, 0.153 nM
- B5 — 2.2-fold higher, 5.1 nM
- B6 — 4.6-fold lower, 0.503 nM
- B7 — within 1.5-fold, 2.56 nM
- B9 — 2.4-fold lower, 0.947 nM

target: T1, hBMPR1B-His (human BMPR1B extracellular …); experiment: Biacore

Point of comparison: B3, Kd 8.46 nM. Against it:
- B2 — 7.4-fold lower, 1.15 nM
- B4 — 26-fold lower, 0.322 nM
- B5 — 3.6-fold lower, 2.34 nM
- B6 — 52-fold lower, 0.163 nM
- B7 — 4.3-fold lower, 1.98 nM
- B8 — 9.1-fold lower, 0.934 nM
- B9 — 9.2-fold lower, 0.922 nM

target: T3, human BMPR1B coated on MSD plates …; experiment: MSD ELISA, BMP2 blocked; set-up: concentration or dose not given beside the values

Point of comparison: B9, “% inhibition” value 11%. Against it:
- B3 — higher, 32%
- B4 — higher, 50%
- B5 — higher, 38%

target: T5, rat BMPR1B overexpressed on the surface …; experiment: cell-based or functional assay

Point of comparison: B8, “% live, Fab-saporin, 100pM” value 18.2%. Against it:
- B2 — higher, 68.7%
- B3 — higher, 102%
- B4 — lower, 14.7%
- B5 — lower, 15.6%
- B6 — lower, 16%
- B7 — lower, 17.9%
- B9 — higher, 18.5%

target: T6, human BMPR1B overexpressed on the …; experiment: cell-based or functional assay

Point of comparison: B6, “% live, Fab-saporin, 100pM” value 9.34%. Against it:
- B2 — higher, 15.5%
- B3 — higher, 14.3%
- B4 — higher, 9.44%
- B5 — higher, 9.53%
- B7 — higher, 11.9%
- B8 — higher, 10.4%
- B9 — higher, 11.9%

target: T8, BMPR1A-Fc (recombinant protein used in the screen 1 ELISA) (human, UniProt P36894 24-152, limits assumed); experiment: ELISA
T8 construct: also called human BMPR1A; not shown: Fc
T8 sequence (P36894 24-152 limits assumed): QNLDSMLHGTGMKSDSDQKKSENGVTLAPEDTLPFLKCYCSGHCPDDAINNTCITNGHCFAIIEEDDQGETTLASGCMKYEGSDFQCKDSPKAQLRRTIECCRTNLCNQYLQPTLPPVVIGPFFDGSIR

Point of comparison: B3, ELISA 0.121. Against it:
- B2 — lower, 0.117
- B4 — lower, 0.056
- B5 — lower, 0.031
- B6 — lower, 0.035
- B7 — lower, 0.043
- B8 — lower, 0.116
- B9 — lower, 0.055

target: B10; experiment: ELISA

Point of comparison: B4, ELISA 0.551. Against it:
- B2 — lower, 0.387
- B3 — higher, 0.737
- B5 — lower, 0.483
- B6 — lower, 0.423
- B7 — lower, 0.417
- B8 — lower, 0.462
- B9 — higher, 0.829

target: T9, irrelevant Fc-tagged protein; experiment: ELISA
T9 construct: ELISA control; also called irrelevant Fc construct

Point of comparison: B5, ELISA 0.039. Against it:
- B2 — higher, 0.04
- B3 — higher, 0.05
- B4 — higher, 0.042
- B6 — the same, 0.039
- B7 — higher, 0.042
- B8 — higher, 0.041
- B9 — higher, 0.05

target: T1, hBMPR1B-His (human BMPR1B extracellular …); experiment: ELISA

Point of comparison: B4, ELISA 1.41. Against it:
- B2 — lower, 0.791
- B3 — higher, 1.46
- B5 — lower, 1.17
- B6 — lower, 0.883
- B7 — lower, 0.855
- B8 — lower, 1.01
- B9 — lower, 1.19

target: T3, human BMPR1B coated on MSD plates …; experiment: MSD ELISA, BMP4 blocked; set-up: concentration or dose not given beside the values

Point of comparison: B9, “% inhibition” value 92%. Against it:
- B3 — lower, 61%
- B4 — higher, 93%
- B5 — lower, 75%

target: T4, BMP4-his; experiment: SPR, Biacore T200: BMPR1B-Fc captured on anti-human capture chip, BMP4-his injected at 31.3-500 nM, 1:1 model

B10 gave a Kd of 1.2 nM.
